Assay results from patent US20240270871A1 (HUMMINGBIRD BIOSCIENCE PTE, published 2024).
Read-outs that look alike come from different tables or passages of the source.

Tests used:
Assay in all cases: BLI (Octet QK384), IgG captured on anti-human Fc (AHC) biosensors, recombinant human HER3 as analyte, 1:1 global fit, averaged
recombinant human HER3 [1] = target: T1, recombinant human HER3 (human, UniProt P21860 20-643, limits assumed)
Protocol: (§1) Biosensors were first dipped in wells containing assay buffer for 60 s to obtain baseline readings, and then IgGs (at a concentration of 12.5 nM) were captured for 120 s, followed by PBST wash for 60 s to remove any unbound antibody or non-specifically-bound protein and the second baseline was collected after IgG capture. Kinetic measurements for antigen binding were performed by dipping each of the antibody-coated biosensors into wells containing a single serial diluted concentration of recombinant human HER3 for 120 s, followed by a 120 s dissociation time by transferring the biosensors into assay buffer containing wells. AHC biosensors were regenerated for 5 s×4 times after each kinetic cycle using 10 mM glycine pH 1.7 to remove bound protein and washed with assay buffer before a new kinetic cycle. Six 1:2 serial dilutions of recombinant human HER3 (at concentrations ranging from 500 nM to 16 nM), were used to ensure an ideal concentration range of antigen, and binding signal spanning the dynamic range of the assay. Measurements for all sensors were generated in real time in parallel. Data analysis was preformed using Octet QK384 analysis 9.0 software (Pall ForteBio) according to manufacturer's recommendations for analysing a high-affinity antigen-antibody kinetics. […]

recombinant human HER3 [2] = target: T1, recombinant human HER3; remark: listed apart in the source
Protocol: as §1

recombinant human HER3 [3] = target: T1, recombinant human HER3; remark: listed apart in the source
Protocol: as §1

recombinant human HER3 [4] = target: T1, recombinant human HER3; remark: listed apart in the source
Protocol: as §1

recombinant human HER3 [5] = target: T1, recombinant human HER3; remark: listed apart in the source
Protocol: as §1

recombinant human HER3 [6] = target: T1, recombinant human HER3; remark: listed apart in the source
Protocol: as §1

recombinant human HER3 [7] = target: T1, recombinant human HER3; remark: listed apart in the source
Protocol: as §1

Measured: Kd

T1 sequence (P21860 20-643 limits assumed): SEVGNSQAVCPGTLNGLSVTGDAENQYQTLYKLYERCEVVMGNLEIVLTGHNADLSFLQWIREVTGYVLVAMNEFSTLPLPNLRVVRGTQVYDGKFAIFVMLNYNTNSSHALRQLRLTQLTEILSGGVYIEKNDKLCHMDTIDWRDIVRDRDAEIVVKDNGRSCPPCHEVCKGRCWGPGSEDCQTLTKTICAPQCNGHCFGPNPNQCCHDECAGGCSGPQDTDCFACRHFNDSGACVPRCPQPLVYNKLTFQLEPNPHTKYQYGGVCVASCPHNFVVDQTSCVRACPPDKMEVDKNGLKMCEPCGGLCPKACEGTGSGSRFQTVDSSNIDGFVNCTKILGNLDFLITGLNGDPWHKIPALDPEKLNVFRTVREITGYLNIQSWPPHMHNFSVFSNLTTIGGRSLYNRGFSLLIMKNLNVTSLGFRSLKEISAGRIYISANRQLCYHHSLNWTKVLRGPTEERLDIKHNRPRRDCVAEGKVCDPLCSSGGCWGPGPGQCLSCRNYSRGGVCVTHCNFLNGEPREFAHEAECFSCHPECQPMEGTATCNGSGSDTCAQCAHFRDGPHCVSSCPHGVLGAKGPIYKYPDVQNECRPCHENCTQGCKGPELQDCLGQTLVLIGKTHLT

B1: 10D1F hIgG1 (antibody, V domains shown)
VH: QVQLQESGPGLVKPSQTLSLTCTVSGYSITSGYSWHWIRQHPGKGLEWIGSIRYSGGTDYNPSLKSLVTISADTSKNQFSLKLSSVTAADTAVYYCARMTTAPWYPFDYWGQGTTVTVSS
VL: DIQMTQSPSSVSASVGDRVTITCKASQIVGSNVAWYQQKPGKAPEPLIYSASYLYSGVPSRFSGSGSGTDFTLTISSLQPEDFATYYCQQYSSHPLTFGQGTKLEIKR
notes: also called 10D1F.A; antibody product of clones 2-1.1, 2-1.2, 2-1.3, 2-1.4, 2-3.12, 2-3.13, 2-3.15
< 1 pM: all assays above
